Results as given in PMC7029000.
Values joined by “and” are separate entries in the source; they are usually repeats but may differ in a detail not shown here. Equal values may be shown once.

Tests used:
[1] = biological target: Purified recombinant PKM2 (UniProt P52480); experiment: native gel or EMSA; blue native PAGE of purified recombinant PKM2 mixed with natural products (vindoline, pyridoxine and others); tetramer to dimers
[2] = biological target: PKM2 (mouse (endogenous in primary astrocytes and striatum)) (UniProt P52480); experiment: native gel or EMSA; blue native PAGE of striatum of Drd2 flox/flox and Drd2 hGFAPcKO mice after 5 mg/kg quinpirole or pyridoxine for 7 days, immunoblot for PKM2; tetramer to dimers
[3] = biological target: PKM2 (mouse (endogenous in primary astrocytes and striatum)) (UniProt P52480); experiment: native gel or EMSA; blue native PAGE (8%, 4 °C) of digitonin lysates of primary astrocytes, immunoblot for PKM2; tetramer to dimers; cells treated with quinpirole, DASA-58, PTX, β-arrestin siRNA, pyridoxine

PKM2, P52480 1-531 (enzyme; other documents disagree on this pair), sequence (P52480 whole entry): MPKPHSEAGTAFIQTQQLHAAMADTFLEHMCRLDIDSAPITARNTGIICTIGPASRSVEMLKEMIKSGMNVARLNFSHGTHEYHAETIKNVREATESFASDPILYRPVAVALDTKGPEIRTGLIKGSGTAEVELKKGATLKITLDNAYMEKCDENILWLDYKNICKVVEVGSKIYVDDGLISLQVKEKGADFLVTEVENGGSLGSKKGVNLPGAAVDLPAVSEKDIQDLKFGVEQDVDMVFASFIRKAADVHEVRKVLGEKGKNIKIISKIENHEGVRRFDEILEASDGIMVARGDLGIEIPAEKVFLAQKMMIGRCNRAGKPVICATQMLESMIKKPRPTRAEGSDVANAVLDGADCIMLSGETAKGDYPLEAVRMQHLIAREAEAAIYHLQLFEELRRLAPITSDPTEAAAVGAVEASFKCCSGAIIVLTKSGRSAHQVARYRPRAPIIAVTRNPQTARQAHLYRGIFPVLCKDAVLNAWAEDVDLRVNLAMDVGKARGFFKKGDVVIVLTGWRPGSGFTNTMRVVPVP
Purified recombinant PKM2, P52480 1-531 (enzyme; other documents disagree on this pair), sequence (P52480 whole entry): as above

In the case of “Purified recombinant PKM2, P52480 1-531 (enzyme; other documents disagree on this pair)”, the stoichiometry N [1] is reported as 2 and 4.

For “PKM2, P52480 1-531 (enzyme; other documents disagree on this pair)”, the stoichiometry N [2] was 2 and 4 and the stoichiometry N [3] was 4 and 2.
